Test results: publication PMC8978339 (Cancer chemotherapy and pharmacology, 2021)

Target: T1, his-tagged PXRLBD (residues 130-434) (human, UniProt O75469 130-434)
T1 sequence (looked up): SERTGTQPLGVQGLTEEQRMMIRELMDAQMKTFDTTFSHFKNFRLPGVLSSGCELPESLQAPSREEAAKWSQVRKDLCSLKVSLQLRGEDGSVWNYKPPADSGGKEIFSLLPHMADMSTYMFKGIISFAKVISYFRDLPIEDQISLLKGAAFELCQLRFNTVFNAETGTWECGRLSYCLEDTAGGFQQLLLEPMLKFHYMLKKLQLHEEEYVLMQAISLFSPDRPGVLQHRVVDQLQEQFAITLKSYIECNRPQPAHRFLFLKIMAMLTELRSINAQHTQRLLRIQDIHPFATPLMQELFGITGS
Assay: pull-down

B1: SRC186 (human SRC-1 fragment, residues 595-780) (domain or fragment, UniProt Q15788 595-780, looked up)
chain: MIQSDNSSSDGKPLDSGLLHNNDRLSDGDSKYSQTSHKLVQLLTTTAEQQLRHADIDTSCKDVLSCTGTSNSASANSSGGSCPSSHSSLTERHKILHRLLQEGSPSDITTLSVEPDKKDSASTSVSVTGQVQGNSSIKLELDASKKKESKDHQLLRYLLDKDEKDLRSTPNLSLDDVKVKVEKKEQ
modifications: biotin (labeled with biotin reagent)
- binding result: binds
